Patent US20240261333A1, “NOVEL TARGETS FOR ENHANCING ANTI-TUMOR IMMUNITY” (THE BROAD INSTITUTE, INC., priority 2021, published 2024)

T1: B3GNT2 (Homo sapiens, UniProt Q9NY97)
T1 construct: The respective ORFs of candidate genes [CD274 (NM_014143), MCL1 (NM_021960), JUNB (NM_002229), and B3GNT2 (NM_006577)] were synthesized; expressed in transfected cells; host or cells: A375 melanoma cells (lentiviral ORF overexpression)
T1 sequence (Q9NY97 1-397): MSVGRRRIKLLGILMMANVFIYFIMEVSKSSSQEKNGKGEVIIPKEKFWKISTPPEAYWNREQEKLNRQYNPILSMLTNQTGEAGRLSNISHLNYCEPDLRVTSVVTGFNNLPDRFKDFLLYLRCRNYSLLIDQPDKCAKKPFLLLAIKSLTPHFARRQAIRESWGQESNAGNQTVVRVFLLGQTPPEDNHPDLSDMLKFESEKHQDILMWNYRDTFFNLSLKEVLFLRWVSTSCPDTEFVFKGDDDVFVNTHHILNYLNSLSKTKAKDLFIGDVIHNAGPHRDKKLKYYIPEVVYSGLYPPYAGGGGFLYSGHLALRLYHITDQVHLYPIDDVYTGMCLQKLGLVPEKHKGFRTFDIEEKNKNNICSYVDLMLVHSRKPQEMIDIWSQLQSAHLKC

B1: DDOST (protein)
chain: SGPRTLVLLDNLNVRETHSLFFRSLKDRGFELTFKTADDPSLSLIKYGEFLYDNLIIFSPSVEDFGGNINVETISAFIDGGGSVLVAASSDIGDPLRELGSECGIEFDEEKTAVIDHHNYDISDLGQHTLIVADTENLLKAPTIVGKSSLNPILFRGVGMVADPDNPLVLDILTGSSTSYSFFPDKPITQYPHAVGKNTLLIAGLQARNNARVIFSGSLDFFSDSFFNSAVQKAAPGSQRYSQTGNYELAVALSRWVFKEEGVLRVGPVSHHRVGETAPPNAYTVTDLVEYSIVIQQLSNGKWVPFDGDDIQLEFVRIDPFVRTFLKKKGGKYSVQFKLPDVYGVFQFKVDYNRLGYTHLYSSTQVSVRPLQHTQYERFIPSAYPYYASAFSMMLGLFIFSIVFLHMKEKEKSD
B2: EIF5B (protein)
chain: MGKKQKNKSEDSTKDDIDLDALAAEIEGAGAAKEQEPQKSKGKKKKEKKKQDFDEDDILKELEELSLEAQGIKADRETVAVKPTENNEEEFTSKDKKKKGQKGKKQSFDDNDSEELEDKDSKSKKTAKPKVEMYSGSDDDDDFNKLPKKAKGKAQKSNKKWDGSEEDEDNSKKIKERSRINSSGESGDESDEFLQSRKGQKKNQKNKPGPNIESGNEDDDASFKIKTVAQKKAEKKERERKKRDEEKAKLRKLKEKEELETGKKDQSKQKESQRKFEEETVKSKVTVDTGVIPASEEKAETPTAAEDDNEGDKKKKDKKKKKGEKEEKEKEKKKGPSKATVKAMQEALAKLKEEEERQKREEEERIKRLEELEAKRKEEERLEQEKRERKKQKEKERKERLKKEGKLLTKSQREARARAEATLKLLQAQGVEVPSKDSLPKKRPIYEDKKRKKIPQQLESKEVSESMELCAAVEVMEQGVPEKEETPPPVEPEEEEDTEDAGLDDWEAMASDEETEKVEGNKVHIEVKENPEEEEEEEEEEEEDEESEEEEEEEGESEGSEGDEEDEKVSDEKDSGKTLDKKPSKEMSSDSEYDSDDDRTKEERAYDKAKRRIEKRRLEHSKNVNTEKLRAPIICVLGHVDTGKTKILDKLRHTHVQDGEAGGITQQIGATNVPLEAINEQTKMIKNFDRENVRIPGMLIIDTPGHESFSNLRNRGSSLCDIAILVVDIMHGLEPQTIESINLLKSKKCPFIVALNKIDRLYDWKKSPDSDVAATLKKQKKNTKDEFEERAKAIIVEFAQQGLNAALFYENKDPRTFVSLVPTSAHTGDGMGSLIYLLVELTQTMLSKRLAHCEELRAQVMEVKALPGMGTTIDVILINGRLKEGDTIIVPGVEGPIVTQIRGLLLPPPMKELRVKNQYEKHKEVEAAQGVKILGKDLEKTLAGLPLLVAYKEDEIPVLKDELIHELKQTLNAIKLEEKGVYVQASTLGSLEALLEFLKTSEVPYAGINIGPVHKKDVMKASVMLEHDPQYAVILAFDVRIERDAQEMADSLGVRIFSAEIIYHLFDAFTKYRQDYKKQKQEEFKHIAVFPCKIKILPQYIFNSRDPIVMGVTVEAGQVKQGTPMCVPSKNFVDIGIVTSIEINHKQVDVAKKGQEVCVKIEPIPGESPKMFGRHFEATDILVSKISRQSIDALKDWFRDEMQKSDWQLIVELKKVFEII
B3: RBM39 (protein)
chain: ADDIDIEAMLEAPYKKDENKLSSANGHEERSKKRKKSKSRSRSHERKRSKSKERKRSRDRERKKSKSRERKRSRSKERRRSRSRSRDRRFRGRYRSPYRRRSRSKSPFRKDKSPVREPIDNLTPEERDARTVFCMQLAARIRPRDLEEFFSTVGKVRDVRMISDRNSRRSKGIAYVEFVDVSSVPLAIGLTGQRVLGVPIIVQASQAEKNRAAAMANNLQKGSAGPMRLYVGSLHFNITEDMLRGIFEPFGRIESIQLMMDSETGRSKGYGFITFSDSECAKKALEQLNGFELAGRPMKVGHVTERTDASSASSFLDSDELERTGIDLGTTGRLQLMARLAEGTGLQIPPAAQQALQMSGSLAFGAVAEFSFVIDLQTRLSQQTEASALAAAASVQPLATQCFQLSNMFNPQTEEEVGWDTEIKDDVIEECNKHGGVIHIYVDKNSAQGNVYVKCPSIAAAIAAVNALHGRWFAGKMITAAYVPLPTYHNLFPDSMTATQLLVPSRR
B4: PUM1 (protein)
chain: SVACVLKRKAVLWQDSFSPHLKHHPQEPANPNMPVVLTSGTGSQAQPQPAANQALAAGTHSSPVPGSIGVAGRSQDDAMVDYFFQRQHGEQLGGGGSGGGGYNNSKHRWPTGDNIHAEHQVRSMDELNHDFQALALEGRAMGEQLLPGKKFWETDESSKDGPKGIFLGDQWRDSAWGTSDHSVSQPIMVQRRPGQSFHVNSEVNSVLSPRSESGGLGVSMVEYVLSSSPGDSCLRKGGFGPRDADSDENDKGEKKNKGTFDGDKLGDLKEEGDVMDKTNGLPVQNGIDADVKDFSRTPGNCQNSANEVDLLGPNQNGSEGLAQLTSTNGAKPVEDFSNMESQSVPLDPMEHVGMEPLQFDYSGTQVPVDSAAATVGLFDYNSQQQLFQRPNALAVQQLTAAQQQQYALAAAHQPHIGLAPAAFVPNPYIISAAPPGTDPYTAGLAAAATLGPAVVPHQYYGVTPWGVYPASLFQQQAAAAAAATNSANQQTTPQAQQGQQQVLRGGASQRPLTPNQNQQGQQTDPLVAAAAVNSALAFGQGLAAGMPGYPVLAPAAYYDQTGALVVNAGARNGLGAPVRLVAPAPVIISSSAAQAAVAAAAASANGAAGGLAGTTNGPFRPLGTQQPQPQPQQQPNNNLASSSFYGNNSLNSNSQSSSLFSQGSAQPANTSLGFGSSSSLGATLGSALGGFGTAVANSNTGSGSRRDSLTGSSDLYKRTSSSLTPIGHSFYNGLSFSSSPGPVGMPLPSQGPGHSQTPPPSLSSHGSSSSLNLGGLTNGSGRYISAAPGAEAKYRSASSASSLFSPSSTLFSSSRLRYGMSDVMPSGRSRLLEDFRNNRYPNLQLREIAGHIMEFSQDQHGSRFIQLKLERATPAERQLVFNEILQAAYQLMVDVFGNYVIQKFFEFGSLEQKLALAERIRGHVLSLALQMYGCRVIQKALEFIPSDQQVINEMVRELDGHVLKCVKDQNGNHVVQKCIECVQPQSLQFIIDAFKGQVFALSTHPYGCRVIQRILEHCLPDQTLPILEELHQHTEQLVQDQYGNYVIQHVLEHGRPEDKSKIVAEIRGNVLVLSQHKFASNVVEKCVTHASRTERAVLIDEVCTMNDGPHSALYTMMKDQYANYVVQKMIDVAEPGQRKIVMHKIRPHIATLRKYTYGKHILAKLEKYYMKNGVDLGPICGPPNGII
B5: UBAP2L (protein)
chain: MMTSVGTNRARGNWEQPQNQNQTQHKQRPQATAEQIRLAQMISDHNDADFEEKVKQLIDITGKNQDECVIALHDCNGDVNRAINVLLEGNPDTHSWEMVGKKKGVSGQKDGGQTESNEEGKENRDRDRDYSRRRGGPPRRGRGASRGREFRGQENGLDGTKSGGPSGRGTERGRRGRGRGRGGSGRRGGRFSAQGMGTFNPADYAEPANTDDNYGNSSGNTWNNTGHFEPDDGTSAWRTATEEWGTEDWNEDLSETKIFTASNVSSVPLPAENVTITAGQRIDLAVLLGKTPSTMENDSSNLDPSQAPSLAQPLVFSNSKQTAISQPASGNTFSHHSMVSMLGKGFGDVGEAKGGSTTGSQFLEQFKTAQALAQLAAQHSQSGSTTTSSWDMGSTTQSPSLVQYDLKNPSDSAVHSPFTKRQAFTPSSTMMEVFLQEKSPAVATSTAAPPPPSSPLPSKSTSAPQMSPGSSDNQSSSPQPAQQKLKQQKKKASLTSKIPALAVEMPGSADISGLNLQFGALQFGSEPVLSDYESTPTTSASSSQAPSSLYTSTASESSSTISSNQSQESGYQSGPIQSTTYTSQNNAQGPLYEQRSTQTRRYPSSISSSPQKDLTQAKNGFSSVQATQLQTTQSVEGATGSAVKSDSPSTSSIPPLNETVSAASLLTTTNQHSSSLGGLSHSEEIPNTTTTQHSSTLSTQQNTLSSSTSSGRTSTSTLLHTSVESEANLHSSSSTFSTTSSTVSAPPPVVSVSSSLNSGSSLGLSLGSNSTVTASTRSSVATTSGKAPPNLPPGVPPLLPNPYIMAPGLLHAYPPQVYGYDDLQMLQTRFPLDYYSIPFPTPTTPLTGRDGSLASNPYSGDLTKFGRGDASSPAPATTLAQPQQNQTQTHHTTQQTFLNPALPPGYSYTSLPYYTGVPGLPSTFQYGPAVFPVAPTSSKQHGVNVSVNASATPFQQPSGYGSHGYNTGVSVTSSNTGVPDISGSVYSKTQQSFEKQGFHSGTPAASFNLPSALGSGGPINPATAAAYPPAPFMHILTPHQQPHSQILHHHLQQDGQTGSGQRSQTSSIPQKPQTNKSAYNSYSWGAN

Biological target: T1, B3GNT2
Assay: Co-IP of FLAG-tagged B3GNT2 followed by mass spectrometry
Assay type: cell-based
Set-up: C-term IgG / C-term flag: unit not given here
How it was run: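 Co-purifying proteins were identified by fractionated nano-LC–MS/MS on an Orbitrap Elite, run data-dependent. Beforehand, lysates in 1% Triton X-100/HEPES buffer were incubated overnight at 4° C with anti-FLAG or […] and pulled down on Protein A/G magnetic beads for 4 h. Duplicate biological replicates.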

[1] = Co-IP followed by mass spectrometry of B3GNT2, C-term tag, FLAG pull-down
[2] = Co-IP followed by mass spectrometry of B3GNT2, C-term tag, IgG pull-down
[3] = Co-IP followed by mass spectrometry of B3GNT2, N-term tag, FLAG pull-down
[4] = Co-IP followed by mass spectrometry of B3GNT2, N-term tag, IgG pull-down

Molecule | C-term flag (Co-IP with FLAG antibody, C-terminally FLAG-tagged B3GNT2, mass spectrometry count, unit not given) | N-term FLAG (Co-IP with FLAG antibody, N-terminally FLAG-tagged B3GNT2, mass spectrometry count, unit not given) | C-term IgG (Co-IP with IgG control antibody, C-terminally FLAG-tagged B3GNT2, mass spectrometry count, unit not given) | N-term IgG (Co-IP with IgG control antibody, N-terminally FLAG-tagged B3GNT2, mass spectrometry count, unit not given) | C-term flag [1] | C-term IgG [2] | N-term FLAG [3] | N-term IgG [4]
B1 | 3 | 0 | 0 | 0 | – | – | – | –
B2 | – | – | – | – | 3 | 0 | 0 | 0
B3 | – | – | – | – | 5 | 3 | 4 | 5
B4 | – | – | – | – | 3 | 0 | 0 | 0
B5 | – | – | – | – | 19 | 15 | 20 | 20
